Laboratory results taken from patent US20170173114A1, “METHODS AND COMPOSITIONS FOR INDUCTION OF UCP1 EXPRESSION” (Joslin Diabetes Center, Inc., priority 2014, published 2017).

How the values were obtained:
[1] = tested on: 3T3-F442A white preadipocytes; experiment: Seahorse Bioanalyzer cellular respiration in 3T3-F442A white preadipocytes; assay type: cell-based; details: constitutive overexpression of FGF6
Excerpt: The Seahorse XF24 (Seahorse Bioscience, http://www.seahorsebio.com/) was utilized for respirometry to measure oxygen consumption rates (OCR; indicating oxidative phosphorylation) and extracellular acidification rates (ECAR; indicating extracellular pH) in mature brown adipocytes. The cell plates and assay cartridges for the Seahorse XF24 have four ports allowing for drug delivery to individual wells during measurement of the metabolic parameters. For a typical bioenergetic profile, cells are first treated with oligomycin to block ATP synthase, FCCP as an uncoupler and Rotenone to block Complex 1 of the ETC (all from Sigma). Example 2 provides additional details regarding the general method. Data provided in the Figures (e.g., FIG. 27) based on the Seahorse Bioanalyzer includes a bottom horizontal line which represents the baseline of the mechanics of the machine and is not related to the experiment.
To assess FGF6's role in the regulation of mitochondrial activity, FGF6 was stably expressed in WT-1 brown preadipocytes and 3T3-F442A white preadipocytes. Stable cells were generated by viral infection followed by drug selection.
A profile of cellular respiration was developed by utilizing well-characterized mitochondrial toxins, as described in FIG. 5B. First, basal respiration was measured, followed by injection of oligomycin (an inhibitor of ATP synthase which allows measurement of ATP turnover). Then, the uncoupler FCCP (carbonilcyanide p-triflouromethoxyphenylhydrazone) was injected to measure respiratory capacity, followed by the complex 1 inhibitor rotenone (which prevents electron transfer activity and leaves only non-mitochondrial activity to be measured).
As mentioned above, 3T3-F442A white preadipocytes were also used to determine FGF6's role in mitochondrial activity regulation.

UCP1 and PTGS2 = UCP1 and PTGS2 mRNA in WT-1 cells differentiated with BMP7; assay type: cell-based, murine; details: 200 mg/mL FGF6 for 32 hours after 8 days BMP7; vs vehicle
Method: WT-1 preadipocyte cells were exposed to 3.3 nM BMP7 in growth media (DMEM-high glucose, 10% FBS, supplemented with 20 nM insulin and 1 nM triiodothyronine (T3)) for 8 days in order to induce differentiation of the adipocytes (Tseng Y. H. et al., (2008) Nature 454(7207):1000-1004). Following day 8 of treatment, the cells were exposed to […] of FGF6 protein, or vehicle control, in growth media for 32 hours. Cells were then collected, and UCP1 and PTGS2 mRNA expression levels were determined according to the quantitative RT-PCR assay described above.

RIP140 (NRIP1) = experiment: RIP140 mRNA expression in brown and white preadipocytes; assay type: cell-based; details: 200 ng/mL, three or seven days
Method: Total RNA was isolated with QIAzol lysis reagent (Qiagen, Valencia, Calif.) and purified by RNeasy Mini columns (Qiagen) following the manufacture's instructions. cDNA was prepared from total RNA using the Advantage RT-PCR kit (BD Biosciences, Palo Alto, Calif.) according to manufacturer's instructions. Diluted cDNA was used in a PCR reaction with SYBR Green Master Mix (Applied Biosystems, Foster City, Calif.) and primers specifically designed for detection of the gene of interest. PCR reactions were run in duplicate for each sample and quantitated in the ABI Sequence Detection System (Applied Biosystems). Data were expressed as arbitrary units after normalization to levels of expression of internal controls for each sample. Sequences of primers for specific genes are each obtained from the published literature or designed using publically available gene sequence databases. Unless otherwise indicated, gene expression data described in the examples below was obtained using QPCR.
RIP140 directs DNA methylation and interacts with nuclear receptors to silence UCP1 expression and suppress mitochondrial biogenesis in white adipocytes (Kiskinis E. et al., EMBO J. 26:4831-4840, 2007; Powelka A. M. et al., J. Clin. Invest. 116:125-136, 2006; Wang H. et al., Mol. Cell. Biol. 28:2187-2200, 2008). […]

B1: FGF6: fibroblast growth factor 6; recombinant human FGF from R&D Systems, or mouse FGF6 cDNA overexpressed by lentiviral vector (protein)
chain: KRQRRLYCNVGIGFHLQVLPDGRISGTHEENPYSLLEISTVERGVVSLFGVRSALFVAMNSKGRLYATPSFQEECKFRETLLPNNYNAYESDLYQGTYIALSKYGRVKRGSKVSPIMTVTHFLPRI
[1]
  gain of ATP turnover: 5 fold
  gain of proton leak: 5 fold
  increase in cellular respiration: 5-10 fold
  increase of basal respiration: ~7 fold
  increase of maximal respiratory capacity: ~6 fold
UCP1 and PTGS2
  PTGS2 levels in cells differentiated using BMP7: increased
  UCP1 expression in cells differentiated using BMP7: induced UCP1 expression
RIP140 (NRIP1)
  reduction of RIP140 mRNA expression: 50-80%
